We go through 19 molecules from patent US20260258115A1.

Broadly, the Kd is the concentration at which binding is half-saturated. A higher Kd goes with a looser complex.

Assay [1] deals with RSV prefusion F (preF, DS-Cav1) (Respiratory syncytial virus). The assay is described as follows: BLI, IgG on sensor, 100 nM antigen.
Assay [2] deals with RSV postfusion F (postF, F deltaFP) (Respiratory syncytial virus). The assay is described as follows: BLI, IgG on sensor, 100 nM antigen. (In general: Biolayer interferometry detects binding as a change in optical thickness at a sensor tip.)

B1: ADI-41291 (antibody, V domains shown)
VH: QVQLQQWGAGLLKPSETLSLTCVVYGESFSDSGYYWTWIRQPPEKGLEWIGEINHGGSTSYNPSLKSRVTISVDTSENQFSLKVTSVTGADTAVYYCARLRLGCSGGSCYSRFDYWGQGTLVTVSS
VL: DIQLTQSPSSLSASVGDRVTITCRASQSINSYLNWYQQKPGKAPVLLIHAASSLQGGVPSRFSGSGSGTDFTLTISSLQPEDFATYYCQQSYNTRWTFGHGTKVDIK
Turning to B1, the dissociation constant (Kd) in assay [1] amounted to 2.98 nM; in assay [2], 1.2 nM.

B2: ADI-41275 (antibody, V domains shown)
VH: EVQLVESGGGLVKPGGSLRLSCAASGFMFSTYSMNWVRQAPGKGLEWVSFITGSSSDKYYAHSVKGRFTISRDNAKRTLYLQLNSLRAEDTAVYYCARFRGLYCDGDCSSRGNTYYNYYGMDVWGQGTTVTVSS
VL: EIVMTQSPLSLSVIPGEPASISCRSSKSLLHSNGYTYLDWYLQKPGQSPQLLIHLGSNRASGVPDRFSGSGSGTDFTLKISRVEAEDVGVFYCMQALQAPPTFGPGTKVEIK
For the molecule B2, the Kd came to 5.74 nM in assay [1] and 1.33 nM in assay [2].

B3: ADI-41287 (antibody, V domains shown)
VH: EVQLVESGGGLVQPGRSLRLSCAASGFTFDDYAMHWVRQAPGKGLEWVSSISWHSADIGYAASVEGRFTISRDNAKNSLFLQMNSLRPEDTALYYCAKEIVSTSWYSGYFQDWGQGTLVTVSS
VL: QPVLTQPRSVSGSPGQSVTISCTGTSSDVGDYNYVSWYQQHPGKAPKLMIYDVSKRPSGVPDRFSGSKSGNTASLTISGLQGEDEADYYCCSYAGRHTFVFGTATKVTVL
As to B3, the Kd came out at 3.22 nM in assay [1] and 0.598 nM in assay [2].

B4: ADI-41283 (antibody, V domains shown)
VH: QVTLKESGPTLVKPTQTLTLTCTFSGFSLSTFGVAVGWIRQPPGKALEWLALIYWDDDKRYSPSLKSRLTITKDISKNQVVLTMTNMDPVDTATYYCAHRLRSLTARGVFDIWGQGTTVTVSS
VL: DIRLTQSPSSLSASVGDRVTITCRASQSINNFLNWYQQRPGKAPTLLIYSASSLQSGVPSRFSGSGSGTDFTLTISSLQPEDFATYFCQQTDSFPWTFGQGTKVEIK
Consider B4, for which the Kd in assay [1] stood at 27.4 nM; in assay [2] it was 7.95 nM.

B5: ADI-41285 (antibody, V domains shown)
VH: QVQLVQSGAEVKKPGSSVKVSCKASGGTFSYYAISWVRQAPGQGLEWMGGIIPILGTVKNAQKFQGRVTITADKITSIAYMELSSLRHEDTAVYYCARDYYDSSGYYYNGYGMDVWGQGTTVTVSS
VL: QSVLIQPPSASGTPGQRVTISCSGSSSNIGSNYVYWYQQLPGTAPKLLIYRNDQRPSGVPDRFSGSKSGTSASLAISGLRSGDEADYYCAAWDDSLGGPIWVFGGGTKLTVL
Consider B5, for which the Kd in assay [1] was determined as 0.511 nM; in assay [2], 0.412 nM.

B6: ADI-41270 (antibody, V domains shown)
VH: EVQLVESGGGVVQPGQSLRLSCAASGFTFSSFAMHWVRQAPGKGLEWVAVISYDGSNKYYADSVKGRFTISRDNSKNTLSLQVNSLRAEDTAVYYCARVSAEGSMGRFSDFNYWGLGTLVTVSS
VL: QSALTQPASVSGSPGQSITISCTGTSSDVGSYNLVSWYQQHPGKAPKLMIYEVRKRPSGVSNRFSGSKSGNTASLTISGLQAEDEADYYCCSYAGSDTYVFGTGTKLTVL
Turning to B6, the Kd in assay [1] was 4.92 nM; in assay [2] it was 0.617 nM.

B7: ADI-41284 (antibody, V domains shown)
VH: QVQLVQSGGGLVKPGGSLRLSCAASGFTFSNAWMSWVRQAPGKGLEWVGRIKSEVDGGTADYAANVKGRLTISRDDSKNMMYLQMNSLKTEDTAVYYCTTDPGVGWIFGEVKLFRTDPEYWGQGTLVTVSS
VL: QSVLTQPPSVSAAPGQKVTISCSGSSSNIGNHYVSWYQQLPGTSPKLLIYDNNKRPSGIPDRFSGSKSGTSATLGITGLQPGDEADYYCGTWDSSLSAVRVFGGGTKVTVL
For B7, the Kd amounted to 3.06 nM in assay [1] and 0.547 nM in assay [2].

B8: ADI-41252 (antibody, V domains shown)
VH: EVQLVQSGAEVKKPGESLKISCMGSGYNFPNYWIGWVRQMSGKGLEWMGIIYPDDSDTTYSPSFQGQVIFSADKSISTAYLQWSSLKASDTAMYFCVRLDKTTQIDFWGQGTLVTVSS
VL: EIVLTQSPSSLSASVGDRVTITCQASQDISNYLNWYQQKPGKAPKLLIYDVSNLETGVPSRFSGSGSGTDFTFTISSLQPEDIATYYCQQHDNLPLTFGQGTRLEIK
In the case of B8, the figures for the Kd in assay [1] and in assay [2] were 1.37 nM and 1 nM, respectively.

B9: ADI-41265 (antibody, V domains shown)
VH: EVQLVQSGAEVKKPGESLTISCKDSGYSFTSYWIGWVRQVPGKGLEWMGIVYPGDSRYSPSFQGHVTMSADKSINTAYLQWSTLKASDTAMYYCAKVVTYGSAIRWFESWGQGTLVTVSS
VL: QSVLTQPPSVSAAPGQKVSISCSGSSSNIGNNFVSWYQQVPGTAPKLLIIDNNKRPSGIPDRFSGSKSGTSATLGITGLQTGDEADYYCGTWDSRLSAEVFGGGTKLTVL
In the case of B9, the Kd was determined as 15 nM in assay [1] and 3.08 nM in assay [2].

B10: ADI-41263 (antibody, V domains shown)
VH: QVQLVQSGAEVKKPGASVKVYCKASGYTFTSHYIHWVRQAPGQGLEWMGRMNPSGGSPMYAQKFQERVTMTRDTSTSTAYMELRSLRSEDTAVYYCAMAKFYSFDYWGQGTLVTVSS
VL: QSVLTQPHSVSESPGKTVTISCTRSSGSIASYFVHWYQQRPGSAPTIVIYEDNQRPSGVPDRFSGSIDSSSNSASLTISGLKTEDEADYYCQSYDSSNWVFGGGTKLTVL
Turning to B10, the Kd is 2.9 nM in assay [1] and 0.345 nM in assay [2].

B11: ADI-41280 (antibody, V domains shown)
VH: QVQLVESGPGLVKPSETLALTCTVSGGSLSTYYWSWIRQPPGKGLEWIGYIYYSGTTYYNPSLKSRVTISEDRSKNQFSLKLTSVTAADTAVYYCARHGPKTEFWSAQYYLELWGRGTLVTVSS
VL: EIVLTQSPGTLSLSPGERATLSCRASQSVSSDYLAWYQQKPGQAPSLLIYGVSTRATGIPDRISGSGSGTDFTLTISRLEPEDFAVYYCHQYGTSPWTFGQGTKVEIK
Take B11: the Kd in assay [1] was found to be 3.62 nM; in assay [2], 0.483 nM.

B12: ADI-41286 (antibody, V domains shown)
VH: QVQLVQSGAEVKKPGASVKVSCKASGYTFISYGISWVRQAPGQGPEWMGWISTHNGNTNYAQKLQGRVTMTTDTSTSTAYMELRSLRSDDTAVYYCARDERSIAVEVYLGSTFDIWGQGTMVTVSS
VL: DIQVTQSPSSVSASVGDRVTITCRASQGISSWLAWYQQKPGKAPKLLIYAASTLQSGVPSRFSGSGSGTDFTLTISRLQPEDFATYYCQQANIFGVTFGPGTKVDIK
As for B12, the Kd was 7.6 nM in assay [1] and 5.49 nM in assay [2].

B13: ADI-41282 (antibody, V domains shown)
VH: QVQLVQSGGGVVQPGRSLRLSCAASGFMFTIYSMHWVRQAPGKGLEWVAVISNDGVNKYYSDSVKGRFTISRDNSKNTLYLQMNNLRAEDTAVYYCASDIVVLVTATDYWGQGTLVTVSS
VL: ETTLTQSPVTLSLSPGERATLSCRTSQSFSSPLLAWYQQKPGQAPRLLIYGASNRATGIPDRFSGSGSGTDFTLTISRLEPVDFAVYYCQQYGSSPYTFGQGTKLEIK
For B13, the Kd in assay [1] was found to be 3.25 nM; in assay [2], 1.25 nM.

B14: ADI-41281 (antibody, V domains shown)
VH: QVQLVQSGAEVKKPGASVKVSCKASGYSFTNHGIHWVRQAPGQRLEWMGWINVANGFTAYSQNLQGRVTFTRDTSASTAYLELTSLRSEDTAVYHCARDESYCSAGYCYLYFDYWGQGTTVTVSS
VL: DIQVTQSPSSLSASVGDRVTITCRASQNIITYVNWYQQKPGKAPELLIFGASSVQSGVPSRFSGSGSGTDFTLTISSLRPDDFATYYCQQSYSNPRTFGGGTKVEIK
Take B14: the values for the Kd in assay [1] and in assay [2] were 6.7 nM and 1.58 nM, respectively.

B15: ADI-41279 (antibody, V domains shown)
VH: QVQLVQSGAEVKKAGETLKISCRGPAHTFTSFWIGWVRQTPGKGLEWMGNIYPGDTDTTYSPSFRGQVTISADKSISTAYLQWNSLKASDTAIYYCATRVRHGYSSSGSFESWGQGTMVTVSS
VL: QSVVTQPPSVSGAPGQRITISCTGSNSNTGAGYDVHWYQQLPGAAPKLLIFANNNRPSGVPDRFSGSKSGTSASLAITGLQAEDEADYYCQSYDNSLSAYVFGTGTKLTVL
In the case of B15, the Kd in assay [1] was found to be 50.4 nM; in assay [2], 47.8 nM.

B16: ADI-41273 (antibody, V domains shown)
VH: EVQLLESGGDLVRPGGSLRLSCTASGFSFSSSEMNWVRQAPGKGLEWVASINSGGDDIYYADSVKGRFTISRDNAKNSLSLQMDSLRAEDTALYYCARSRSGYSSGWSRFFGNWGQGTLVTVSS
VL: QSALTQPRSVSGSPGQSVTISCTGTISDIGAYNYVSWYQQHPGKAPKVMIYDVSKRPSGVPDRFSGSKSGFTASLTISGLQAEDEADYYCCSYAGRWVFGGGTKLTVL
For the molecule B16, the Kd in assay [1] came to 3.06 nM; in assay [2], 1.17 nM.

B17: ADI-41277 (antibody, V domains shown)
VH: QVQLQESGPGLVKPSGTLSLTCAVSGGSITGRNWWSWVRQPPGKELERIGEIYHGGSTEYNPSLKGRVTISVDKSKNQFSLRLNSVTAADTAVYYCARVAHYDSNGYYIGYFDLWGRGTLVTVSS
VL: EIVLTQSPPSLSASVGDRVTITCRASQSISIYLNWYQQKPGKAPKLLIFAASSLQSGVPLRFSGSGSGTDFTLTISSLQPEDFATYYCHQSYSAPWTFGQGTKVDIK
With B17, the values for the Kd in assay [1] and in assay [2] were 3.6 nM and 0.78 nM, respectively.

B18: ADI-41267 (antibody, V domains shown)
VH: QVQLVQSGPGLVKPSGTLSLTCAVSGGSISTTHWWSWVRQPPGKGLEWIGEIYHSGSTNYNPSLKSRVTISVDKSRSQFSLKLTSVTAADTAVYYCARGDPLCSGGICYSGYFDYWGQGTLVTVSS
VL: SYVLTQPPSVSVSPGQTATITCSGDKLGDQYACWYQQKSGQSPVLVIYRDNKRPSGIPERFSGSNSGNTATLTISETQAMDEADYYCQAWGSSSVVFGGGTKVTVL
Regarding B18, the Kd in assay [1] was 10.7 nM; in assay [2], 10.9 nM.

B19: ADI-41278 (antibody, V domains shown)
VH: EVQLVESGPALVKPTQTLTLTCTFSGFSLSTKRMGVSWIRQPPGKALEWLARIDWDDDKFYSTSLKTRLTISKDTSKNQVVLTLANMDPVDTATYFCARTTVYASGGYYLYYLDYWGQGTLVTVSS
VL: DIVMTQTPSSLSASVGDRVTLTCRASQRIASYVNWYHQKPGKAPNLLIYAASNLQSGVPSRFSGSGSGTDFTLTISSLQPEDFATYYCQQSYSTPLTFGQGTKLEIK
B19: the Kd in assay [1] is 1.28 nM; in assay [2], 0.482 nM.
